Data: article PMC5428041, “Dynamic equilibrium on DNA defines transcriptional regulation of a multidrug binding transcriptional repressor, LmrR”

Target: T1, LmrR (Lactococcus lactis, UniProt A2RI36 1-116)
T1 sequence: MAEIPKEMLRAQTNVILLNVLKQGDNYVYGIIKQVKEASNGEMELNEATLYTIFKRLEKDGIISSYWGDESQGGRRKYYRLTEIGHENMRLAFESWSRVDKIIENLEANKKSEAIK
Assay: ITC; apo; 2 LmrR dimers per DNA; 10 mM NaPi pH 6.8, 100 mM NaCl, 25 C (ITC; same buffer for NMR); 5% DMSO in riboflavin titrations
Conditions: protein: recombinant; tags: C-terminal His6; chain copies: 4

B1: lmrCD operator 33 bp (dsDNA)
DNA 1: CAATTTAATGTAAAGTAGTTTACATTATTTAAC
DNA 2: GTTAAATAATGTAAACTACTTTACATTAAATTG
Which Kd does the source give for B1 here?
The Kd was 64 ± 22 nM.
